{
  "source": "paper PMC5214978",
  "about": "(Structure (London, England : 1993), 2016)",
  "biological_target": "the molecule itself",
  "assay": "cross-linking",
  "note": "Where “and” joins values, the source holds several entries; their conditions need not be identical. Equal values may be shown once.",
  "data": [
    {"protein": "Anion exchanger 1 (AE1) (natural protein, human (endogenous in erythrocytes), UniProt P02730 1-911, looked up, extensive and variable glycosylation (sites not given)) MEELQDDYEDMMEENLEQEEYEDPDIPESQMEEPAAHDTEATATDYHTTSHPGTHKVYVELQELVMDEKNQELRWMEAARWVQLEENLGENGAWGRPHLSHLTFWSLLELRRVFTKGTVLLDLQETSLAGVANQLLDRFIFEDQIRPQDREELLRALLLKHSHAGELEALGGVKPAVLTRSGDPSQPLLPQHSSLETQLFCEQGDGGTEGHSPSGILEKIPPDSEATLVLVGRADFLEQPVLGFVRLQEAAELEAVELPVPIRFLFVLLGPEAPHIDYTQLGRAAATLMSERVFRIDAYMAQSRGELLHSLEGFLDCSLVLPPTDAPSEQALLSLVPVQRELLRRRYQSSPAKPDSSFYKGLDLNGGPDDPLQQTGQLFGGLVRDIRRRYPYYLSDITDAFSPQVLAAVIFIYFAALSPAITFGGLLGEKTRNQMGVSELLISTAVQGILFALLGAQPLLVVGFSGPLLVFEEAFFSFCETNGLEYIVGRVWIGFWLILLVVLVVAFEGSFLVRFISRYTQEIFSFLISLIFIYETFSKLIKIFQDHPLQKTYNYNVLMVPKPQGPLPNTALLSLVLMAGTFFFAMMLRKFKNSSYFPGKLRRVIGDFGVPISILIMVLVDFFIQDTYTQKLSVPDGFKVSNSSARGWVIHPLGLRSEFPIWMMFASALPALLVFILIFLESQITTLIVSKPERKMVKGSGFHLDLLLVVGMGGVAALFGMPWLSATTVRSVTHANALTVMGKASTPGAAAQIQEVKEQRISGLLVAVLVGLSILMEPILSRIPLAVLFGIFLYMGVTSLSGIQLFDRILLLFKPPKYHPDVPYVKRVKTWRMHLFTGIQIICLAVLWVVKSTPASLALPFVLILTVPLRRVLLPLIFRNVELQCLDADDAKATFDEEEGRDEYDEVAMPV", "values": [
      {"measurement": "stoichiometry N", "result": "2 and 4"}
    ]}
  ]
}
